This test concerns the target T1, human fibroblast activation protein (hFAP) expressed on the surface of HEK293-hFAP cells (human, UniProt Q12884 1-760).
T1 construct: whole, on cells; FAP overexpressing HEK293 cell line
T1 sequence (looked up): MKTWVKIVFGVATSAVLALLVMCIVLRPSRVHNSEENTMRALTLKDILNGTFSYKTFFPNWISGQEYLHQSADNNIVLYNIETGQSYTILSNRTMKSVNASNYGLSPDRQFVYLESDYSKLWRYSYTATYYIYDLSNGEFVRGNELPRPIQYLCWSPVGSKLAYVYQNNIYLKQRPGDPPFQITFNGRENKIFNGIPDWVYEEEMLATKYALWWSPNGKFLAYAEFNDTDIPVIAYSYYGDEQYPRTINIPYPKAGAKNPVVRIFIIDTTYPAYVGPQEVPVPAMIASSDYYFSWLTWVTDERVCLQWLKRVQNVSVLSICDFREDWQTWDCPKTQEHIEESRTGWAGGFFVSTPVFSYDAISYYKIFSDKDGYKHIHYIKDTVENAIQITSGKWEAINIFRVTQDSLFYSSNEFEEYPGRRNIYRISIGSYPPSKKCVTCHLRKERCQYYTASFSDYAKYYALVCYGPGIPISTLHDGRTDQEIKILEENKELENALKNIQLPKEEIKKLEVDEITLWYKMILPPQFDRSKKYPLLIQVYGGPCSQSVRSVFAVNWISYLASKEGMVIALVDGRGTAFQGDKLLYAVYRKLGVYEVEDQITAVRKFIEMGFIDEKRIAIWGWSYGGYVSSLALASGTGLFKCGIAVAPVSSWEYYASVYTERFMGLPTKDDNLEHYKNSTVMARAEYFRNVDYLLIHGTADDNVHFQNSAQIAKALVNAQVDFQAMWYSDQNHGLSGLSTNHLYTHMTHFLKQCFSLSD
The test can be described thus: flow cytometry on HEK293-hFAP cells. As for the experimental part: Fusion proteins were tested with a concentration of 1 μM, 100 nM, 10 nM, 1 nM or 0.1 nM on hFAP expressing HEK293-hFAP-cells. To exclude an unspecific binding, fusion proteins were also incubated on control cells HEK293-pEntry with the same concentrations. […] Supernatants were removed after 45 min, cells were washed in blocking buffer and 100 μl/well rabbit anti-StrepTag antibody (GenScript; A00626), 1:300 diluted in FACS blocking buffer were added. […] Flow cytometry measurement was conducted on the Guava easyCyte 5HT device from Merck-Millipore at excitation wavelength 488 nm and emission wavelength 525/30 nm.
(In general: Flow cytometry measures light scatter and fluorescence of single cells or particles in a stream.)

The record followed here is US20250388696A1 (NAVIGO PROTEINS, published 2025).

Numbering of substitutions follows the chain as printed.

B1: fusion protein 218699 (designed binder, not shown: small tags and cut ends)
chain (part 1 of 2): not shown
chain (part 2 of 2): LAEAKVLALKELDKYGISNYYKNLINNAKTVEGVKALKEAIVAA
notes: also called CID 218699
Take B1: the binding result is recorded as “binds”.

B2: fusion protein 218691 (designed binder, not shown: small tags and cut ends)
chain (part 1 of 2): not shown
chain (part 2 of 2): B1 chain (part 2 of 2) with V31I, E39A, A40Q
notes: also called CID 218691
Regarding B2, the binding result is recorded as “binds”.

B3: fusion protein 218704 (designed binder, not shown: small tags and cut ends)
chain (part 1 of 2): not shown
chain (part 2 of 2): LAEAKVLAIKELDKAGISNYYFNLINNAKTVEGVKDLKAQIVAA
notes: also called CID 218704
As for B3, the binding result was “binds”.
